Experimental data reported in IntAct's records for PubMed 9422760.

B1: Proline-serine-threonine phosphatase-interacting protein 1 (Homo sapiens), O43586 (parent)
chain: MMPQLQFKDAFWCRDFTAHTGYEVLLQRLLDGRKMCKDMEELLRQRAQAEERYGKELVQIARKAGGQTEINSLRASFDSLKQQMENVGSSHIQLALTLREELRSLEEFRERQKEQRKKYEAVMDRVQKSKLSLYKKAMESKKTYEQKCRDADDAEQAFERISANGHQKQVEKSQNKARQCKDSATEAERVYRQSIAQLEKVRAEWEQEHRTTCEAFQLQEFDRLTILRNALWVHSNQLSMQCVKDDELYEEVRLTLEGCSIDADIDSFIQAKSTGTEPPAPVPYQNYYDREVTPLTSSPGIQPSCGMIKRFSGLLHGSPKTTSLAASAASTETLTPTPERNEGVYTAIAVQEIQGNPASPAQEYRALYDYTAQNPDELDLSAGDILEVILEGEDGWWTVERNGQRGFVPGSYLEKL
partner: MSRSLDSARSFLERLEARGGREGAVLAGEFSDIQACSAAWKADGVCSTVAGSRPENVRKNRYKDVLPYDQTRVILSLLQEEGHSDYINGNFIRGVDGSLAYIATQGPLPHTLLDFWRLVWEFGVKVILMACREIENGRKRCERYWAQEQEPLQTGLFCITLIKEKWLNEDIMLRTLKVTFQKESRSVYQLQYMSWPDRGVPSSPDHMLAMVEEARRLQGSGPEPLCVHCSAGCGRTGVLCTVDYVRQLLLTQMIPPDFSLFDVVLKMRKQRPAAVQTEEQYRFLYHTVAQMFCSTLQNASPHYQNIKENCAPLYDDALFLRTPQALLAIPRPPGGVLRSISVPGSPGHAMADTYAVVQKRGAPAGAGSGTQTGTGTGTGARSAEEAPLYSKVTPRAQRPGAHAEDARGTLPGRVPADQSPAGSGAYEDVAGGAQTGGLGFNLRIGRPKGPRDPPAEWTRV
B2: Tyrosine-protein phosphatase non-receptor type 18 (Homo sapiens), Q99952 (parent)
chain: B1 partner

Variants of: B1
Conditions: with ptn18_human PTPN18, Q99952

effect of a mutation on the interaction	Variant
disrupting interaction	W232A

Variants of: B2
Conditions: with ppip1_human PSTPIP1, O43586

effect of a mutation on the interaction	Variant
disrupting interaction	P447A

Variants of: B2
Conditions: with ppip1_human PSTPIP1, O43586
Remark: another data set of the same source

effect of a mutation on the interaction	Variant
increasing interaction	C229S
